# Test results as given in patent US20220064674A1 (MILTENYI BIOTEC B V, published 2022).
# T1: CD62L (L-selectin) expressed on cells (human, UniProt P14151 39-372)
# T1 construct: whole, on cells; also called HT1080-CD62L
# T1 sequence: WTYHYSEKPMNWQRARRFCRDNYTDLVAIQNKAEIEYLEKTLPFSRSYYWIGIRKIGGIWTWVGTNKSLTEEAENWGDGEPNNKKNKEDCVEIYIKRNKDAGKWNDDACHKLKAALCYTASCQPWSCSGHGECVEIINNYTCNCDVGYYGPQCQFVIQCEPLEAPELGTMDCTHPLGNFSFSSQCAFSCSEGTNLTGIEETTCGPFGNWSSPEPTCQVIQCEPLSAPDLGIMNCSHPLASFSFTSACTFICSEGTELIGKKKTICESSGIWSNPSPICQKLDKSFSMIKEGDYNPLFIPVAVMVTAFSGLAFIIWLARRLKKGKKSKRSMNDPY
# Molecular target: T1, CD62L (L-selectin) expressed on cells
# Assay: competition and binding assay on PBMC, flow cytometry
binder,measurement,value
"CD62L specific antibody derived from the same clone (parental antibody) (antibody, V domains shown) VH: EVKLVESGGGLVKPGGSLKLSCAASGFTFSSYAMSWVRQTPEKRLEWVASISSGGSTYYPDSVKGRFTISRDNARNILYLQMSSLRSEDTAMYYCARDDDGYYDYWGQGTTLTVSS VL: not shown",binding result,binds
